Reference: patent US20170204454A1 (THERMO FISHER SCIENTIFIC BALTICS UAB, published 2017)

How the values were obtained:
[1] = biological target: T1, Pyrococcus DNA polymerase with a sequence non-specific DNA binding domain (Pyrococcus); assay: indirect ELISA, apparent dissociation constant
T1 construct: It was the immunogen and the ELISA and Western blot antigen; also called Pyrococcus DNA polymerase-DBD
T1 chain: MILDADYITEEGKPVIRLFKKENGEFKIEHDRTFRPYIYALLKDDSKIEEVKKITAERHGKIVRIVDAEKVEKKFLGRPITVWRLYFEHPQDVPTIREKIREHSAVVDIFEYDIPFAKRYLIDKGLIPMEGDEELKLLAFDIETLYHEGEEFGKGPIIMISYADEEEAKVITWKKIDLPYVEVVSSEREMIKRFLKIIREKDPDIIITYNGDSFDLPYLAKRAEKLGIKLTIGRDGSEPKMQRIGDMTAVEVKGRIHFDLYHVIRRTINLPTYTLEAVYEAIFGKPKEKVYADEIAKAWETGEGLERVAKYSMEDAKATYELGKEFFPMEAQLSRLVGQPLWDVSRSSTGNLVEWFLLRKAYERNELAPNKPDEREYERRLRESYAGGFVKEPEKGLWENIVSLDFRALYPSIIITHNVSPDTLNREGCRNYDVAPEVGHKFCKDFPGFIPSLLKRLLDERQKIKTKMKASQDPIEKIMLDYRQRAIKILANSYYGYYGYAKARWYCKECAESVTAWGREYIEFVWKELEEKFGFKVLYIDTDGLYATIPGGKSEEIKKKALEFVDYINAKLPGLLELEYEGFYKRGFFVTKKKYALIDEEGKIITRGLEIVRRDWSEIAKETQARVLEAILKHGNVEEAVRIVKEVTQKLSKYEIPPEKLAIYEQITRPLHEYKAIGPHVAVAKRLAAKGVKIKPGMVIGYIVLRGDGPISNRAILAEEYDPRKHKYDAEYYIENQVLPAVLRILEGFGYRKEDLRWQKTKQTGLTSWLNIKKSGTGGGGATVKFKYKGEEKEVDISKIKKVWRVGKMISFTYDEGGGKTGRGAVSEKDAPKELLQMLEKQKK
Procedure: The affinity of monoclonal antibodies was determined by measuring their apparent dissociation constants (kD) by an indirect ELISA (Table 2).

[2] = biological target: T1, Pyrococcus DNA polymerase with a …; assay: cell-based or functional assay

B1: 5D3 (antibody, V domains shown)
VH: SGPGLVAPSQSLSITCTVSGFSLTDYGVSWVRQSPGQGLEWLGIIWGDGSTDYHSSLISRLRISKDNSKSQVFLKLNSLQTDDTATYYCARPVIGNYAMDYWGQG
VL: TQSPASLAVSLGQRATISCRASESVEYYGTRLMQWYQQKPGKAPKLLIYGASNVESGVPARFSGSGSGTDFSLNIHPVEEDDFAMYFCQQSRKVPWTFGGG
notes: also called 5D3 antibody
Kd [1]: 0.29 nM | Inhibition of exonuclease activity [2]: 71 molar ratio enzyme:antibody (1:x) | Inhibition of polymerase activity [2]: 20 molar ratio enzyme:antibody (1:x)
